Measured values taken from the Human Domainome abundance scans (Beltran et al. 2025).
± gives the uncertainty stated by the source.

B1: Ventral anterior homeobox 1, residues 102 to 157; numbered along this chain, Q5SQQ9 (parent)
chain: RTRTSFTAEQLYRLEMEFQRCQYVVGRERTELARQLNLSETQVKVWFQNRRTKQKK
B2: Glucocorticoid receptor, residues 419 to 494; numbered along this chain, P04150 (parent)
chain: KLCLVCSDEASGCHYGVLTCGSCKVFFKRAVEGQHNYLCAGRNDCIIDKIRRKNCPACRYRKCLQAGMNLEARKTK

Variants of: B1
Test: abundance fitness (aPCA) (normalised: wild type 0, dead -1); higher = more abundant; growth selection in yeast, the domain comes from the species named
Details: Homo sapiens

Variant	abundance fitness
T2R	-0.166 ± 0.13
T2S	-0.074 ± 0.16
T2M	-0.128 ± 0.26
T2L	-0.406 ± 0.22
T2Q	0.135 ± 0.28
T2E	-0.012 ± 0.3
T2K	-0.202 ± 0.19
T2D	-0.034 ± 0.19
T2W	-0.566 ± 0.24
T2F	-0.3 ± 0.24
T2C	-1.01 ± 0.4
T2N	0.271 ± 0.35
T2P	-0.098 ± 0.24
T2Y	-0.335 ± 0.26
T2H	-0.38 ± 0.24
T2G	0.013 ± 0.14
R3D	0.326 ± 0.12
R3H	0.229 ± 0.098

Variant	abundance fitness
R3Q	0.084 ± 0.14
R3M	0.279 ± 0.16
R3L	0.156 ± 0.084
R3G	0.223 ± 0.095
R3P	0.164 ± 0.091
R3A	0.002 ± 0.11
R3C	0.211 ± 0.11
R3N	0.268 ± 0.098
R3K	0.168 ± 0.13
R3F	0.209 ± 0.098
R3I	0.251 ± 0.092
R1E	-0.025 ± 0.46
R1S	-0.042 ± 0.2
R1C	0.058 ± 0.18
R1G	-0.002 ± 0.19
R1T	-0.465 ± 0.37
R1M	0.083 ± 0.39
R1I	0.024 ± 0.34

Variants of: B2
Test: as above
Details: Homo sapiens

Variant	abundance fitness
N69T	0.011 ± 0.048
N69Y	-0.105 ± 0.066
N69P	-0.252 ± 0.051
N69M	-0.022 ± 0.048
N69V	-0.049 ± 0.036
N69S	0.039 ± 0.044
N69W	-0.061 ± 0.043
N69R	0.01 ± 0.033
N69Q	-0.071 ± 0.053
T75F	0.064 ± 0.064
T75M	-0.004 ± 0.062
T75N	0.014 ± 0.074
T75W	0.047 ± 0.052
T75P	-0.005 ± 0.048
T75H	-0.038 ± 0.078
T75S	0.008 ± 0.043
T75V	-0.064 ± 0.048
T75A	0.029 ± 0.044
T75K	0.007 ± 0.076
T75E	0.032 ± 0.063
T75C	-0.075 ± 0.061
T75I	-0.044 ± 0.072

Variant	abundance fitness
T75Q	-0.099 ± 0.063
T75L	0.054 ± 0.043
T75G	0.044 ± 0.042
T75R	-0.01 ± 0.04
T75D	0.023 ± 0.069
A72R	-0.054 ± 0.032
A72Y	0.011 ± 0.061
A72P	-0.077 ± 0.055
A72D	-0.017 ± 0.06
A72G	-0.023 ± 0.032
A72K	0.049 ± 0.045
A72E	0.047 ± 0.041
A72F	-0.285 ± 0.081
A72V	-0.043 ± 0.035
A72I	0.002 ± 0.062
A72M	0.005 ± 0.053
A72H	-0.044 ± 0.061
A72N	-0.037 ± 0.072
A72S	-0.067 ± 0.042
A72L	-0.015 ± 0.036
A72W	-0.023 ± 0.039
A72Q	0.008 ± 0.043

Variant	abundance fitness
E71N	-0.017 ± 0.065
E71T	-0.076 ± 0.053
E71A	-0.135 ± 0.041
E71V	-0.01 ± 0.038
E71S	-0.016 ± 0.041
E71F	-0.072 ± 0.059
E71Y	-0.131 ± 0.081
E71I	-0.016 ± 0.065
E71Q	-0.051 ± 0.063
E71K	-0.077 ± 0.056
E71W	-0.106 ± 0.04
E71C	-0.052 ± 0.049
E71P	-0.038 ± 0.05
E71D	0.008 ± 0.048
E71H	-0.09 ± 0.061
E71G	-0.009 ± 0.032
E71R	-0.095 ± 0.033
E71L	-0.104 ± 0.038
L70G	-0.068 ± 0.033
L70Y	0.023 ± 0.077
L70N	-0.011 ± 0.076
L70V	0.021 ± 0.032

Variant	abundance fitness
L70Q	-0.02 ± 0.053
L70F	-0.08 ± 0.065
L70C	-0.029 ± 0.053
L70A	-0.058 ± 0.036
L70R	0.023 ± 0.03
L70M	0.052 ± 0.054
L70S	0.052 ± 0.039
L70K	-0.029 ± 0.054
L70E	-0.021 ± 0.049
L70D	-0.033 ± 0.072
L70H	0.01 ± 0.073
L70W	-0.033 ± 0.04
L70I	-0.018 ± 0.083
L70T	-0.03 ± 0.045
R73F	-0.059 ± 0.059
R73S	0.003 ± 0.037
R73C	-0.019 ± 0.052
R73Q	-0.061 ± 0.058
R73P	-0.007 ± 0.048
R73D	-0.125 ± 0.076
R73G	-0.021 ± 0.032
R73L	-0.04 ± 0.033

Variant	abundance fitness
R73I	-0.066 ± 0.07
R73E	-0.015 ± 0.042
R73T	0.024 ± 0.051
R73M	0.012 ± 0.05
R73K	0.004 ± 0.052
R73H	-0.109 ± 0.065
R73N	-0.133 ± 0.084
R73Y	-0.062 ± 0.073
K76C	0.132 ± 0.14
K76Y	-0.206 ± 0.17
K76V	-0.001 ± 0.047
K76L	-0.001 ± 0.048
K76W	-0.137 ± 0.083
K76S	0.099 ± 0.052
K76P	0.004 ± 0.073
K76I	-0.277 ± 0.28
K76A	0.028 ± 0.051
K76E	0.105 ± 0.059
K76H	-0.096 ± 0.27
K76F	0.006 ± 0.11
K76D	0.02 ± 0.068
K76G	0.018 ± 0.052

Variant	abundance fitness
K76M	-0.023 ± 0.1
K76N	0.045 ± 0.095
K74L	0.077 ± 0.038
K74W	-0.017 ± 0.05
K74S	-0.047 ± 0.046
K74M	0.009 ± 0.054
K74P	-0.049 ± 0.056
K74I	0.027 ± 0.08
K74E	0.091 ± 0.053
K74V	-0.008 ± 0.044
K74Q	0.063 ± 0.057
K74C	-0.032 ± 0.06
K74A	-0.033 ± 0.049
K74N	-0.01 ± 0.094
K74Y	0.043 ± 0.15
K74R	0.054 ± 0.037
K74H	0.039 ± 0.16
K74T	-0.034 ± 0.054
K74D	0.19 ± 0.073
K74G	-0.006 ± 0.037
K74F	0.047 ± 0.077
